The target in one test is endogenous IP3R1 (UniProt Q14643). In words: sucrose density gradient fractionation.
Test [1] deals with transiently expressed IP3R1 (wild type) (human) (UniProt Q14643). In words: sucrose density gradient fractionation.

What is called stoichiometry N is the number of molecules, sites or subunits per partner or assembly.

Chain of endogenous IP3R1, Q14643-1 1-2758 (receptor) (Q14643 whole entry): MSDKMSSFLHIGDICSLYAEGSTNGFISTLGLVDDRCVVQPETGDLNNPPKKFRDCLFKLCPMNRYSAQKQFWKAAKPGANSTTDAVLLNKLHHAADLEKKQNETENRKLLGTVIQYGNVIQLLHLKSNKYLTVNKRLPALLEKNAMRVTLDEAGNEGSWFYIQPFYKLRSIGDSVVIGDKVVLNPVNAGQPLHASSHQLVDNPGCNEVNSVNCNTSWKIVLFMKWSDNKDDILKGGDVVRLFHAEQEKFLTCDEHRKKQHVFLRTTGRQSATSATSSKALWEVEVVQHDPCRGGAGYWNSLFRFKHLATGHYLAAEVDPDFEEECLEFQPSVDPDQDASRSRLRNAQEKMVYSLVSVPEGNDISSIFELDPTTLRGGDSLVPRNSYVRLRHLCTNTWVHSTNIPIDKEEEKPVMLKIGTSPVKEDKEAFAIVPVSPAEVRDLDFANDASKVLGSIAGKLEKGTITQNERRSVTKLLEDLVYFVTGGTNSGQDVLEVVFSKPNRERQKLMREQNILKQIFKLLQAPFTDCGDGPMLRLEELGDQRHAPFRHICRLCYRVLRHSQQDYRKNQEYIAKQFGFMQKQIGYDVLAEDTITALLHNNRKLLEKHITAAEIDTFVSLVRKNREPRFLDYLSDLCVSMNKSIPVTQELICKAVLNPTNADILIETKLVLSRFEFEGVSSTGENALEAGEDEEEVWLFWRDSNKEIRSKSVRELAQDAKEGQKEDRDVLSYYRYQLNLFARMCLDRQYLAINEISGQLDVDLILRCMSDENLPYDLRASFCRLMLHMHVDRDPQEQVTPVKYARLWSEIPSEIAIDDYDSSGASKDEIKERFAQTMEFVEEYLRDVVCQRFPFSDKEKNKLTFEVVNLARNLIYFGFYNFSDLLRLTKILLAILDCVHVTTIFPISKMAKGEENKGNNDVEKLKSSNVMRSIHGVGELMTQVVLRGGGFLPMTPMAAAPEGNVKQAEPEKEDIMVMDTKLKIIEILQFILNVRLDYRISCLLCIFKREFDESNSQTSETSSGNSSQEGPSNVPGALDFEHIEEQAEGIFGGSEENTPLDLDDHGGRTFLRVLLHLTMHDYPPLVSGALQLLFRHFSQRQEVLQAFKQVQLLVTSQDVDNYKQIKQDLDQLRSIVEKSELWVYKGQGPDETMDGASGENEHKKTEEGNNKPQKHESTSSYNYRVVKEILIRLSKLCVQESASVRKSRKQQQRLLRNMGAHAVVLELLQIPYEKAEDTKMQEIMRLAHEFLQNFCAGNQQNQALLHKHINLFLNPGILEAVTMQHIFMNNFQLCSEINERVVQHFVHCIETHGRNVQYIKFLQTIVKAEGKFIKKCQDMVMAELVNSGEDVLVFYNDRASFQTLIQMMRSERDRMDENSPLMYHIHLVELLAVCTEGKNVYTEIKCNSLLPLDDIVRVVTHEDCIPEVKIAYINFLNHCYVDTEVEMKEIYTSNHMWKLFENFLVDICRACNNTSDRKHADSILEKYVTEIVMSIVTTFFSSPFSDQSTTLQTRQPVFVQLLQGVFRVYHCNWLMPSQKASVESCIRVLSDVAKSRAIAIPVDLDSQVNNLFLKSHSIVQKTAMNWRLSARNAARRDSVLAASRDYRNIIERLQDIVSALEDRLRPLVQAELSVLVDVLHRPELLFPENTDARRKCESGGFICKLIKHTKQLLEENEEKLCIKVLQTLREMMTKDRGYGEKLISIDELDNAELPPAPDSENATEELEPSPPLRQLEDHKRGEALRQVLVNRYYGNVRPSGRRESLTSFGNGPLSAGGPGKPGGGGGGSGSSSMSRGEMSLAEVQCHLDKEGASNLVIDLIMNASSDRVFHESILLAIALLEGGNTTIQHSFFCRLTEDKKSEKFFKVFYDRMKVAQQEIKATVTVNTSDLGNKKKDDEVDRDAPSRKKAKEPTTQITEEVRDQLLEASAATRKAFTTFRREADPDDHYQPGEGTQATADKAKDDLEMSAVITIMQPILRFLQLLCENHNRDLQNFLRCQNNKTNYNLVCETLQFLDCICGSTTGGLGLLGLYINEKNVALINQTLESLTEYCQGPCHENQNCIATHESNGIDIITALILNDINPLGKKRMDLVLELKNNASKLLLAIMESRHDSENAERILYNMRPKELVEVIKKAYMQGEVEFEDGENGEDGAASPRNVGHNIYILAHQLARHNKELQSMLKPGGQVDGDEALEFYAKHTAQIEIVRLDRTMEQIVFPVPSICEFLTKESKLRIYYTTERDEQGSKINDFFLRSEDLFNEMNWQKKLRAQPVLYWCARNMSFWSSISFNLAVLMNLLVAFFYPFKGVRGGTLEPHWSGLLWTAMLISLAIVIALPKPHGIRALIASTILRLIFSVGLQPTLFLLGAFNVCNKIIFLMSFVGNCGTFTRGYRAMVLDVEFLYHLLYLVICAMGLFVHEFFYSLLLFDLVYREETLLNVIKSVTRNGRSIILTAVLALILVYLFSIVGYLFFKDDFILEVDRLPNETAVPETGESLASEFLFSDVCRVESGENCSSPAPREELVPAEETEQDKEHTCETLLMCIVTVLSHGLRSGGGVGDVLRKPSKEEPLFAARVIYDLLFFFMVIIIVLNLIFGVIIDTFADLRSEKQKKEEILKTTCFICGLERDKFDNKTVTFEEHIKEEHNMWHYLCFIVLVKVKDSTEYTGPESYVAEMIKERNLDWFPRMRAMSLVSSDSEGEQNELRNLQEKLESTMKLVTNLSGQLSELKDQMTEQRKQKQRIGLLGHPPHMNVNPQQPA

In the test with endogenous IP3R1, “endogenous IP3R1, Q14643-1 1-2758 (receptor)” displayed a stoichiometry N of 4.
In test [1], “transiently expressed IP3R1 (wild type), Q14643-1 1-2758 (receptor)” had a stoichiometry N of 4.

For the origin of these results see PMC10235943.
